Assay results reported in article PMC3778555.
Where two headings read alike, the source gives them in different places.

Experiments:
Test in all cases: EMSA
ΔN20C17-HMGA1a [1] = target: T1, ΔN20C17-HMGA1a (human, UniProt P17096 21-91)
ΔN20C17-HMGA1b [2] = target: T2, ΔN20C17-HMGA1b (human, UniProt P17096-2 21-80)
ΔN20C17-HMGA1a [3] = target: T1, ΔN20C17-HMGA1a; remark: listed apart in the source
ΔN20C17-HMGA1a [4] = target: T1, ΔN20C17-HMGA1a; remark: listed apart in the source
ΔN20C17-HMGA1b [5] = target: T2, ΔN20C17-HMGA1b; remark: listed apart in the source
ΔN20C17-HMGA1a [6] = target: T1, ΔN20C17-HMGA1a; remark: listed apart in the source
ΔN20C17-HMGA1a [7] = target: T1, ΔN20C17-HMGA1a; remark: listed apart in the source
ΔN20C17-HMGA1a [8] = target: T1, ΔN20C17-HMGA1a; remark: listed apart in the source

B1: A19-DNA (dsDNA)
DNA 1: CCCAAAAAAAAAAAAAAAAAAACC
DNA 2: GGTTTTTTTTTTTTTTTTTTTGGG
B1: binds (ΔN20C17-HMGA1a [1]); binds (ΔN20C17-HMGA1b [2]).

B2: A18-DNA (dsDNA)
DNA 1: CCCAAAAAAAAAAAAAAAAAACC
DNA 2: GGTTTTTTTTTTTTTTTTTTGGG
B2: binds (ΔN20C17-HMGA1a [3]).

B3: A5T5-DNA (dsDNA)
DNA 1: CGAAAAATTTTTCG
DNA 2: CGAAAAATTTTTCG
B3: binds (ΔN20C17-HMGA1a [4]); binds (ΔN20C17-HMGA1b [5]).

B4: A9T9-DNA (dsDNA)
DNA 1: CGAAAAAAAAATTTTTTTTTCG
DNA 2: CGAAAAAAAAATTTTTTTTTCG
B4: binds (ΔN20C17-HMGA1a [6]).

B5: T9A9-DNA (dsDNA)
DNA 1: GCTTTTTTTTTAAAAAAAAAGC
DNA 2: GCTTTTTTTTTAAAAAAAAAGC
B5: binds (ΔN20C17-HMGA1a [7]).

B6: A5-DNA (dsDNA)
DNA 1: GGCCCCGCGAAAAACCCGGCGGG
DNA 2: CCCGCCGGGTTTTTCGCGGGGCC
B6: binds (ΔN20C17-HMGA1a [8]).
